For this test, the target named is GFP-MG53 (mouse) (UniProt Q1XH17). Description: cell-based or functional assay.
Sequence of UniProt Q1XH17 (Q1XH17 whole entry): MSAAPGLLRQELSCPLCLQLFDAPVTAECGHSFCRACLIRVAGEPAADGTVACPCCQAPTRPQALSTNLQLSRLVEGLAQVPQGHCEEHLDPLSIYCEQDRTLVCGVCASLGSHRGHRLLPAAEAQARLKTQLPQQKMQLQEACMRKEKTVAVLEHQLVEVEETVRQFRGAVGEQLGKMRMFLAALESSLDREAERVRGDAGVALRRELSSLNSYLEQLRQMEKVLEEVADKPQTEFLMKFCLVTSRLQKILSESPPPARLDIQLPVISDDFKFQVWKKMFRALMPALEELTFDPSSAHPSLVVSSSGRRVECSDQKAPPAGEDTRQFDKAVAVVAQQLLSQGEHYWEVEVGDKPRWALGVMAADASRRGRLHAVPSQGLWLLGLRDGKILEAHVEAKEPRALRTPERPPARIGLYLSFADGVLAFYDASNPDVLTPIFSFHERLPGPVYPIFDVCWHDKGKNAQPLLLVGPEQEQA

Consider “caveolin-3 overexpressed from pcDNA-Cav-3”, for which the reduction in the appearance of filapodia-like structures in C2C12 myoblasts transfected with caveolin-3 and GFP-MG53 (about 10:1) worked out at 82%.
